In test [1] the target is T1, human BCMA expressed on cells (human, UniProt Q02223 1-184).
T1 construct: the cell line is named under assay; also called wildtype human BCMA
T1 sequence: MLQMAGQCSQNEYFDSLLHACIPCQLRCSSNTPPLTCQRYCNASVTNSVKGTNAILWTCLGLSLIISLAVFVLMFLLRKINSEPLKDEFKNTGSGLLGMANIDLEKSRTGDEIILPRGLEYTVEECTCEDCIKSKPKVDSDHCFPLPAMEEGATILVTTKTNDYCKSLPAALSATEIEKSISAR
In words: flow cytometry, HEK293 cells stably expressing human BCMA.

For test [2], the target named is T2, His-tagged human BCMA (Acro Biosystems, Cat. #BCA-H522y) (human, UniProt Q02223 1-54).
T2 construct: also called huBCMA; P1; not shown: His tag
T2 sequence: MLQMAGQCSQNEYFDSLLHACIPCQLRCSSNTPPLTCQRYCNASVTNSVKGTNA
Put plainly: BLI, His-tagged human BCMA on HIS1K tip; R2 0.9973.

In test [3] the target is T3, His-tagged cynomolgous macaque BCMA (Acro Biosystems, BCA-C52H7) (cynomolgus macaque, UniProt Q02223 1-54 (human entry)).
T3 construct: Bought protein; also called cyno BCMA; CyBCMA; not shown: His tag
Put plainly: ELISA, coated His-tagged cynomolgus BCMA.

Test [4] addresses T3, His-tagged cynomolgous macaque BCMA …. Put plainly: BLI, His-tagged cynomolgus BCMA on HIS1K tip; R2 0.9625. (In general: In BLI a coated tip is dipped into the sample, and binding shifts an interference pattern.)
The target in test [5] is T4, recombinant his-tagged human TACI (Sinobiological cat #11937-H08H) (human, UniProt O14836 1-165).
T4 construct: Bought protein; also called Human TACI-His; huTACI; not shown: His tag
T4 sequence: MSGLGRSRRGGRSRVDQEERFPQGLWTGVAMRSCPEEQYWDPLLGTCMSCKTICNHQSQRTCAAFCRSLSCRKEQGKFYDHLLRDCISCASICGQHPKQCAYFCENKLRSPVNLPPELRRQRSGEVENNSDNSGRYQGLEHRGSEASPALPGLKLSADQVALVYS
Put plainly: ELISA, coated His-tagged human TACI. Background: In an ELISA, binding on a coated surface is turned into a signal by an enzyme label.

Test [6] deals with T2, His-tagged human BCMA (Acro Biosystems, …). In words: BLI, His-tagged human BCMA on HIS1K tip.
Test [7] has as its target T3, His-tagged cynomolgous macaque BCMA …. In words: BLI, His-tagged cynomolgus BCMA on HIS1K tip.
Test [8] concerns the target T5, cynomolgous macaque BCMA expressed on CHOK1 cells.
T5 construct: also called cyno BCMA on cells
Put plainly: flow cytometry, CHOK1 cells transiently expressing cynomolgus BCMA.

Test [9] deals with T1, human BCMA expressed on cells. In words: flow cytometry, H929 cells (BCMA-expressing). A general note: A flow cytometer gives signals particle by particle.
Test [10] concerns the target T2, His-tagged human BCMA (Acro Biosystems, …). Put plainly: BLI, His-tagged human BCMA on HIS1K tip, no APRIL; R2 0.9901.
Test [11] deals with T3, His-tagged cynomolgous macaque BCMA …. Put plainly: BLI, His-tagged cynomolgus BCMA on HIS1K tip; R2 0.9022.
In test [12] the target is T2, His-tagged human BCMA (Acro Biosystems, …). Put plainly: ELISA, coated His-tagged human BCMA.
Test [13] has as its target T6, His-tagged mouse BCMA (Acro Biosystems, BCA-M52H3) (mouse, UniProt O88472 1-49).
T6 construct: Bought protein; not shown: His tag
T6 chain: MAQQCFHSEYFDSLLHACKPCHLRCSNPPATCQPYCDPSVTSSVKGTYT
Put plainly: BLI, His-tagged mouse BCMA on HIS1K tip.

A further test addresses T7, BCMA Mut (human, UniProt Q02223 1-184).
T7 construct: Expressed on HEK293T cells; also called human BCMA comprising the substitutions Y13A, D15A, L17G and L18G
T7 chain: T1 sequence with Y13A, D15A, L17G, L18G
Put plainly: flow cytometry on HEK293T cells expressing BCMA Mut.

Test [14] deals with T8, human TACI expressed on cells (human, UniProt O14836 1-293).
T8 construct: also called wildtype human TACI
T8 sequence: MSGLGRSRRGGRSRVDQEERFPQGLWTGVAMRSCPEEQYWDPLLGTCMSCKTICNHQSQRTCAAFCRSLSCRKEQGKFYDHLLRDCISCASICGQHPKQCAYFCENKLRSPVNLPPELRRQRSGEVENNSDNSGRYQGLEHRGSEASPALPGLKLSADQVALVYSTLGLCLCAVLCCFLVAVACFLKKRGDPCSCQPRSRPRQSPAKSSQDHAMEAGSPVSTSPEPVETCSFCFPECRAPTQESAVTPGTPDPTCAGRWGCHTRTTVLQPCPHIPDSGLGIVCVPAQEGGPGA
Put plainly: flow cytometry, HEK 293 cells expressing human TACI.

The target in test [15] is T1, human BCMA expressed on cells. Put plainly: flow cytometry, H929 cells (BCMA-expressing). The source holds these as a separate data set.
Test [16] addresses T2, His-tagged human BCMA (Acro Biosystems, …). Put plainly: BLI, His-tagged human BCMA on HIS1K tip; R2 0.9919.
For test [17] the target is unchanged. In words: BLI, His-tagged human BCMA on HIS1K tip, no APRIL; R2 0.9919.
The target of test [18] is T1, human BCMA expressed on cells. In words: flow cytometry, HEK 293 cells expressing human BCMA.
The target of test [19] is T4, recombinant his-tagged human TACI …. Put plainly: ELISA, coated His-tagged human TACI. This is another data set of the same source.
Test [20] addresses T5, cynomolgous macaque BCMA expressed on …. In words: flow cytometry, CHOK1 cells transiently expressing cynomolgus BCMA. This is another data set of the same source.
For test [21], the target named is T2, His-tagged human BCMA (Acro Biosystems, …). In words: competition ELISA: His-tagged human BCMA binding to coated APRIL-Fc in the presence of the antibody.
For test [22], the target named is T1, human BCMA expressed on cells. Put plainly: flow cytometry, HEK293 cells stably expressing human BCMA. This is another data set of the same source.
The target of test [23] is T4, recombinant his-tagged human TACI …. Put plainly: ELISA, coated His-tagged human TACI. This is another data set of the same source.
For test [24], the target named is T2, His-tagged human BCMA (Acro Biosystems, …). In words: ELISA, coated His-tagged human BCMA. This is another data set of the same source.
Test [25] has as its target T6, His-tagged mouse BCMA (Acro Biosystems, …). In words: BLI, His-tagged mouse BCMA on HIS1K tip; R2 0.9686.
In test [26] the target is T2, His-tagged human BCMA (Acro Biosystems, …). Put plainly: BLI, His-tagged human BCMA on HIS1K tip; R2 0.9901.
The target in test [27] is T3, His-tagged cynomolgous macaque BCMA …. Put plainly: BLI, His-tagged cynomolgus BCMA on HIS1K tip; R2 0.9501.
In test [28] the target is T6, His-tagged mouse BCMA (Acro Biosystems, …). In words: BLI, His-tagged mouse BCMA on HIS1K tip; R2 0.9322.

Where a chain is given by its changes, count along the chain named. Read-outs that look alike come from different tables or passages of the source. A value given as a limit tells only on which side of the number the result lay.

B1: 552-LN2-F8 hIgG1 (antibody, V domains shown)
VH: QIQLVQSGPELKKPGETVKISCKASGYTFTDYTMYWVKQAPGKGLKWMGWINTETGEPTYADDFKGRFVFSLETSANTAYLQINNLKNEDTATYFCAISYYYGMDYWGQGTSVTVTS
VL: DIILTQSPASLAVSLGQRATITCRASKSVSTSGYNFVYWYQQKPGQPPKLLIYLASNLESGVPARFSGSGSGTDFTLNIHPVEEEDAATYYCQHSRELPRTFGGGTKLEIKR
notes: Human-mouse chimeric antibody, human IgG1 format; also called [9]
Usually EC50 (read off the curve) stands for the concentration at which the effect is half-maximal. As usually defined, the Kd is a measure of binding affinity in units of concentration. Higher therefore signals weaker binding. As for B1, the “EC50 (read off the curve)” value in [1] was ~0.5 mg/L; in [3] it was ~0.08 mg/L; in [9], ~0.1 mg/L. The Kd in test [2] was < 0.001 nM; in test [4], 59.8 nM; in test [10] it was < 0.001 nM. For the same molecule, the binding result in test [5] is listed as “no binding (tested: 10 ug/ml)”; in [8] it was “binds”. The “Human BCMA response” value in test [6] turned out to be 2.31. Further, the “Cyno BCMA response” value in test [7] was found to be 1.58.

B2: 538-SP5-B10 hIgG1 (antibody, V domains shown)
VH: EVQLQQSGPELVKPGASVKMSCKASGYTFTSYVMHWVKQKPGRGLEWIAYILPFNDVTKYNEKFKGKATLTSDKSSNTAYMELSSLTSEDSAVYYCARWEWDDGYFDYWGQGTTLTVSS
VL: DAVMTQTPLSLPVSLGDQASISCRSSQSLENSNGNTYLNWYLQKPGQSPQLLIYRVSNRFSGVLDRFSGSGSGTDFTLKISRVEAEDLGVYFCLQVSHVPFTFGAGTKLELKR
notes: Human-mouse chimeric antibody, human IgG1 format
One may read the EC50 as the concentration that produces a half-maximal response. By IC50 is commonly meant the concentration that inhibits the measured activity by half. On to B2, for which the Kd in test [11] was 31.4 nM; in test [16], < 0.001 nM; in test [17] it was < 0.001 nM; in [25], 47.5 nM. Further, the EC50 turned out to be 0.085 nM in [12], 24.1 nM in test [14], 0.21 nM in test [18] and 2.53 nM in test [19]. For the same molecule, in test [13], the “Mouse BCMA response” value was 1.31. The binding result with BCMA Mut is given as “no binding”; in test [20] it was “binds”. Besides, the “EC50 (read off the curve)” value in [15] was ~1 nM; in [9], ~0.03 mg/L; in [22], ~0.03 mg/L; in test [23] it was ~0.4 mg/L; in test [24], ~0.01 mg/L. The “Human BCMA response” value in test [6] came out at 2.35. Further, the “Cyno BCMA response” value in test [7] was 0.895. In test [21], the IC50 was 0.39 nM.

B3: 539-SP5-D7 hIgG1 (antibody, V domains shown)
VH: EVMLVDSGGNLVKPGGSLKLSCAASGFTFSNYVISWVRQTPEKRLEWVATISTVGTNTYYPDSVRGRFTISRDNAENTLYLQMSSLRSEDTAIYYCSRHKYGYDDPSYAMDYWGQGTSVTVSS
VL: QLVLTQSSSASFSLGASAKLTCTLSSQHSTYTIEWYQQQPLKPPKYVMELKKDGSHSTGDGIPDRFSGSSSGADRYLSISNIQAEDEAIYICGVGDTVKEQFVYVFGGGTKVTVLG
notes: Human-mouse chimeric antibody, human IgG1 format, lambda light chain; also called [4]
For the molecule B3, the “Mouse BCMA response” value in test [13] is 1.01. The “Human BCMA response” value in [6] was 2.14. Further, the “Cyno BCMA response” value in [7] came out at 0.265. For the same molecule, the Kd in [26] was < 0.001 nM; in test [10], < 0.001 nM; in [27], 167 nM; in [28], 4.86 nM. Further, in test [8], the binding result was “binds”. In addition, the “EC50 (read off the curve)” value in [9] was ~0.3 mg/L.

For the origin of these results see patent US20230374147A1 (HUMMINGBIRD BIOSCIENCE PTE, published 2023).
